IntAct's records for PubMed 22632967

B1: Cyclin-F (Homo sapiens), P41002 (parent)
chain: MGSGGVVHCRCAKCFCYPTKRRIRRRPRNLTILSLPEDVLFHILKWLSVEDILAVRAVHSQLKDLVDNHASVWACASFQELWPSPGNLKLFERAAEKGNFEAAVKLGIAYLYNEGLSVSDEARAEVNGLKASRFFSLAERLNVGAAPFIWLFIRPPWSVSGSCCKAVVHESLRAECQLQRTHKASILHCLGRVLSLFEDEEKQQQAHDLFEEAAHQGCLTSSYLLWESDRRTDVSDPGRCLHSFRKLRDYAAKGCWEAQLSLAKACANANQLGLEVRASSEIVCQLFQASQAVSKQQVFSVQKGLNDTMRYILIDWLVEVATMKDFTSLCLHLTVECVDRYLRRRLVPRYRLQLLGIACMVICTRFISKEILTIREAVWLTDNTYKYEDLVRMMGEIVSALEGKIRVPTVVDYKEVLLTLVPVELRTQHLCSFLCELSLLHTSLSAYAPARLAAAALLLARLTHGQTQPWTTQLWDLTGFSYEDLIPCVLSLHKKCFHDDAPKDYRQVSLTAVKQRFEDKRYGEISQEEVLSYSQLCAALGVTQDSPDPPTFLSTGEIHAFLSSPSGRRTKRKRENSLQEDRGSFVTTPTAELSSQEETLLGSFLDWSLDCCSGYEGDQESEGEKEGDVTAPSGILDVTVVYLNPEQHCCQESSDEEACPEDKGPQDPQALALDTQIPATPGPKPLVRTSREPGKDVTTSGYSSVSTASPTSSVDGGLGALPQPTSVLSLDSDSHTQPCHHQARKSCLQCRPPSPPESSVPQQQVKRINLCIHSEEEDMNLGLVRL
partner: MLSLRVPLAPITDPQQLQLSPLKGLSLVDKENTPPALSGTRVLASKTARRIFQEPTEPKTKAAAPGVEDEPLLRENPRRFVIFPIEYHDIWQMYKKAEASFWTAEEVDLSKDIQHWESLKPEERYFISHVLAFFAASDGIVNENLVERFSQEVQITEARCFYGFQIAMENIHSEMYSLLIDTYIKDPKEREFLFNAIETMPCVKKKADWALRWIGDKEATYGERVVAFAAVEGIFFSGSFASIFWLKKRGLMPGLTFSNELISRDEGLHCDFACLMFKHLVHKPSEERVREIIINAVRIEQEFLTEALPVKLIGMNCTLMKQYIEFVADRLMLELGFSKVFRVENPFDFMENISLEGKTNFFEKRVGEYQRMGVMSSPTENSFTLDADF
B2: Ribonucleoside-diphosphate reductase subunit M2 (Homo sapiens), P31350 (parent)
chain: B1 partner
partner: B1 chain
B3: Cyclin-F (Homo sapiens), P41002 (parent)
chain: B1 chain

Variants of: B1
Conditions: with rir2_human RRM2, P31350

Variant	effect of a mutation on the interaction
L35A;P36A	increasing interaction strength

Variants of: B2
Conditions: with ccnf_human CCNF

Variant	effect of a mutation on the interaction
MLSLRVPLAPITDPQQLQLSPLKGLSLVDKENTPPALSGTRVLASKTAARAFQEPTEPKTKAAAPGVEDEPLLRENPRRFVIFPIEYHDIWQMYKKAEASFWTAEEVDLSKDIQHWESLKPEERYFISHVLAFFAASDGIVNENLVERFSQEVQITEARCFYGFQIAMENIHSEMYSLLIDTYIKDPKEREFLFNAIETMPCVKKKADWALRWIGDKEATYGERVVAFAAVEGIFFSGSFASIFWLKKRGLMPGLTFSNELISRDEGLHCDFACLMFKHLVHKPSEERVREIIINAVRIEQEFLTEALPVKLIGMNCTLMKQYIEFVADRLMLELGFSKVFRVENPFDFMENISLEGKTNFFEKRVGEYQRMGVMSSPTENSFTLDADF [R49A;I51A]	disrupting interaction strength
MLSLRVPLAPITDPQQLQLSPLKGLSLVDKENAPPALSGTRVLASKTARRIFQEPTEPKTKAAAPGVEDEPLLRENPRRFVIFPIEYHDIWQMYKKAEASFWTAEEVDLSKDIQHWESLKPEERYFISHVLAFFAASDGIVNENLVERFSQEVQITEARCFYGFQIAMENIHSEMYSLLIDTYIKDPKEREFLFNAIETMPCVKKKADWALRWIGDKEATYGERVVAFAAVEGIFFSGSFASIFWLKKRGLMPGLTFSNELISRDEGLHCDFACLMFKHLVHKPSEERVREIIINAVRIEQEFLTEALPVKLIGMNCTLMKQYIEFVADRLMLELGFSKVFRVENPFDFMENISLEGKTNFFEKRVGEYQRMGVMSSPTENSFTLDADF [T33A]	decreasing interaction strength

Variants of: B2
Conditions: with ccnf_human CCNF
Remark: another data set of the same source

Variant	effect of a mutation on the interaction
MLSLRVPLAPITDPQQLQLSPLKGLSLVDKENAPPALSGTRVLASKTARRIFQEPTEPKTKAAAPGVEDEPLLRENPRRFVIFPIEYHDIWQMYKKAEASFWTAEEVDLSKDIQHWESLKPEERYFISHVLAFFAASDGIVNENLVERFSQEVQITEARCFYGFQIAMENIHSEMYSLLIDTYIKDPKEREFLFNAIETMPCVKKKADWALRWIGDKEATYGERVVAFAAVEGIFFSGSFASIFWLKKRGLMPGLTFSNELISRDEGLHCDFACLMFKHLVHKPSEERVREIIINAVRIEQEFLTEALPVKLIGMNCTLMKQYIEFVADRLMLELGFSKVFRVENPFDFMENISLEGKTNFFEKRVGEYQRMGVMSSPTENSFTLDADF [T33A]	disrupting interaction strength

Variants of: B3
Conditions: with cp110_human CCP110, O43303
Sequence of cp110_human CCP110, O43303 (O43303 whole entry): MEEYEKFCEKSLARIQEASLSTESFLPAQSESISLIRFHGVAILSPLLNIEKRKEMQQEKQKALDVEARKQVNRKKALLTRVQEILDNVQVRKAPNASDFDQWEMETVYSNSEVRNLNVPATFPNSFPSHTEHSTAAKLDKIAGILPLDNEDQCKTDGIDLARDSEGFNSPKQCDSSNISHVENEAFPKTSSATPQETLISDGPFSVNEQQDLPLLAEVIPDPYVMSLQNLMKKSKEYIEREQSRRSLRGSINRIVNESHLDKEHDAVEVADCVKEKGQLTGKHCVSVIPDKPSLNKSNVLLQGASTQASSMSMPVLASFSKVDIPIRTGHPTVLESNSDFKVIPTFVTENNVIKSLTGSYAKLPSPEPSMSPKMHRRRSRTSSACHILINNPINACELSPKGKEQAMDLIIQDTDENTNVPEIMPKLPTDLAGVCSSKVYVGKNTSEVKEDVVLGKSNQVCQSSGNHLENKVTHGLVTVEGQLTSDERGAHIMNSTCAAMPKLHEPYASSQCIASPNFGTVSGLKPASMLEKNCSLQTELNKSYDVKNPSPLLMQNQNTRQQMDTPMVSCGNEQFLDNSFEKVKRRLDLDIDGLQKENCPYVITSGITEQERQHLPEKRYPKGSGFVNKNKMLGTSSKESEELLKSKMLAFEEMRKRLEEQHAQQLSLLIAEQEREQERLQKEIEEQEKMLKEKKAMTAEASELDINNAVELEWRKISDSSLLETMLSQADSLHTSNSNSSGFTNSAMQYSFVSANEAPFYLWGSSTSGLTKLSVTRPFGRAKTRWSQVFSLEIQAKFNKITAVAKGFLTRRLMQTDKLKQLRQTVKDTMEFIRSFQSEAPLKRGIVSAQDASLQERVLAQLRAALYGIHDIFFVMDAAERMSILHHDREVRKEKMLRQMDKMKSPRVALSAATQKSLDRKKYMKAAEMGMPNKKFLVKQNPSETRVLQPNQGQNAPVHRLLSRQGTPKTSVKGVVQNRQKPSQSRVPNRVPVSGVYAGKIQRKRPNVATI

Variant	effect of a mutation on the interaction
L35A;P36A	increasing interaction strength
